From EP2651411B1

Key:
[1] = biological target: carcinoembryonic antigen (CEA) (UniProt P06731); assay: SEC-HPLC; the conjugate without CEA eluted at 10.312 min and 10.331 min in serum
[2] = biological target: somatostatin receptors on AR42J cells (rat); assay: apparent IC50; competition with ^111In(DTPA-octreotide) on AR42J cells, 3 h at RT
[3] = biological target: gastrin-releasing peptide receptor on PC-3 cells (UniProt P30550); assay: competition with ^125I-Bombesin for binding to 3x10^6 PC-3 cells, inhibitor 56 to 0.44 nM
Sequence of UniProt P30550 (P30550 whole entry): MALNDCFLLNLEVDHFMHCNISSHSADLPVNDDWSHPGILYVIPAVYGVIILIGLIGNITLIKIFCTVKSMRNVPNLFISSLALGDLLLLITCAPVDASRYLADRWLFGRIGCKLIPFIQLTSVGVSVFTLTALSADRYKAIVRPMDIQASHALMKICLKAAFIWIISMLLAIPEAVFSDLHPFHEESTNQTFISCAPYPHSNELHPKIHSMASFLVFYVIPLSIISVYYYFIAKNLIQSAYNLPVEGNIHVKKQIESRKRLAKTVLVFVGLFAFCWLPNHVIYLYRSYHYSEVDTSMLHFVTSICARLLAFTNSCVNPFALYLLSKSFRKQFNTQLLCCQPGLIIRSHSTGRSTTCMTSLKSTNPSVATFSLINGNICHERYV

[4] = biological target: gastrin-releasing peptide receptor on PC-3 cells (UniProt P30550); assay: competition with ^125I-BBN for binding to PC-3 cells, inhibitor 250 to 2 nM

Sequence of UniProt P06731 (P06731 35-685 limits assumed): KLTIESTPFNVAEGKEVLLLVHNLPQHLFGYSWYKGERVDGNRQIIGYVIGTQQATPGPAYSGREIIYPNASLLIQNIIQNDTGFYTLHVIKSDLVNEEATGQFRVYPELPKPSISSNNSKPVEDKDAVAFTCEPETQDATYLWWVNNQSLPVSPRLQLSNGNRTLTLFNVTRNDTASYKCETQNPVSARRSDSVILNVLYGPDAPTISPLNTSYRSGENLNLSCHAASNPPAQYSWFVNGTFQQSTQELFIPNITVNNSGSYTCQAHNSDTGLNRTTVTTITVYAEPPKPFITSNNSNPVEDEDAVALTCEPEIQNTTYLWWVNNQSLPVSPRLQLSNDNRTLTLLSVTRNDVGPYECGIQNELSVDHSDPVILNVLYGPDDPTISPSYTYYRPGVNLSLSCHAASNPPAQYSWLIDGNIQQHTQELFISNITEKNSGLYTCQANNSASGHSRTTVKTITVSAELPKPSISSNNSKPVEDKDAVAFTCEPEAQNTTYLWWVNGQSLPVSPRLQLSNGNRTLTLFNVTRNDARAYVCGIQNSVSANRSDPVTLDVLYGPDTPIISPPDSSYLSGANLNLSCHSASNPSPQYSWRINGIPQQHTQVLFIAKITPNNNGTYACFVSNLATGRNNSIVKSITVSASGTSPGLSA

Row | IC50 [2] [nM] | IC50 [4] [nM] | Substance | further results
1 | 3.6 |  | Al^19F(IMP466) (Al^19F complex of NOTA-D-Phe-Cys-Phe-D-Trp-Lys-Thr-Cys-Throl) (peptide) | 
2 | 6.3 |  | ^115In(DTPA-octreotide) (peptide) | 
3 |  | 24.4 | commercially available BBN peptide (bombesin positive control) | 

The next lines start with the substance.

Row | Substance | IC50 [2] [nM] | IC50 [4] [nM] | further results
4 | Al^18F(NODA-MPAES)-hMN-14 Fab' |  |  | SEC-HPLC retention time of the major product after adding CEA [1]: 7.21 min
5 | IMP468 (NOTA-NH-(CH2)7CO-Gln-Trp-Val-Trp-Ala-Val-Gly-His-Leu-Met-NH2) (peptide) |  | 35.9 | IC50 [3]: 21.5 nM
6 | ^69Ga(IMP466) (^69Ga complex of NOTA-D-Phe-Cys-Phe-D-Trp-Lys-Thr-Cys-Throl) (peptide) | 13 |  | 
